# The supplement of paper PMC9112550, “Optimization of the antimicrobial peptide Bac7 by deep mutational scanning” (BMC Biology, 2022)
# Tested on: Escherichia coli TOP10
# Test: shrunken log2 fold change of peptide-encoding DNA abundance (4.5 h post-induction vs induction); higher = less antimicrobial activity (less host growth inhibition)
# Conditions: time post-induction: 4.5 h; library: site-saturation at positions 5, 18, 19, 20
# 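Further: peptides expressed intracellularly from a pBAD plasmid library in pooled LB shake-flask culture, induced with 0.3% L-arabinose, DNA abundance read by NGS, three biological replicates, DESeq2 with apeglm shrinkage.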
row,Sequence,shrunken log2 fold change
1,RRIRDRPPRLPRPRPRPPITPRP,-0.217
2,RRIRDRPPRLPRPRPRPPKIPRP,-0.0144
3,RRIRDRPPRLPRPRPRPPLVPRP,0.194
4,RRIRDRPPRLPRPRPRPPNIPRP,-0.0733
5,RRIRDRPPRLPRPRPRPPNQPRP,0.317
6,RRIRDRPPRLPRPRPRPPNYPRP,-0.147
7,RRIRDRPPRLPRPRPRPPPCPRP,0.443
8,RRIRDRPPRLPRPRPRPPPHPRP,0.623
9,RRIRDRPPRLPRPRPRPPQGPRP,0.289
10,RRIRDRPPRLPRPRPRPPQSPRP,0.613
11,RRIRDRPPRLPRPRPRPPQVPRP,0.272
12,RRIRDRPPRLPRPRPRPPRPPRP,0.616
13,RRIRDRPPRLPRPRPRPPVSPRP,0.0155
14,RRIRDRPPRLPRPRPRPPYCPRP,-0.0939
15,RRIRDRPPRLPRPRPRPPYRPRP,0.0425
16,RRIRDRPPRLPRPRPRPPYWPRP,0.246
17,RRIRDRPPRLPRPRPRPQAAPRP,0.0147
18,RRIRDRPPRLPRPRPRPQCAPRP,0.0622
19,RRIRDRPPRLPRPRPRPQCEPRP,0.0364
20,RRIRDRPPRLPRPRPRPQCGPRP,0.192
21,RRIRDRPPRLPRPRPRPQCRPRP,0.0338
22,RRIRDRPPRLPRPRPRPQDKPRP,-0.592
23,RRIRDRPPRLPRPRPRPQEEPRP,-0.0321
24,RRIRDRPPRLPRPRPRPQEFPRP,-0.0529
25,RRIRDRPPRLPRPRPRPQEIPRP,-0.00905

row,Sequence,shrunken log2 fold change
1,RRIRDRPPRLPRPRPRPQGKPRP,0.00439
2,RRIRDRPPRLPRPRPRPQGRPRP,-0.0642
3,RRIRDRPPRLPRPRPRPQHVPRP,0.0427
4,RRIRDRPPRLPRPRPRPQIEPRP,-0.0186
5,RRIRDRPPRLPRPRPRPQIQPRP,-0.221
6,RRIRDRPPRLPRPRPRPQKAPRP,0.0864
7,RRIRDRPPRLPRPRPRPQKSPRP,-0.11
8,RRIRDRPPRLPRPRPRPQMAPRP,0.116
9,RRIRDRPPRLPRPRPRPQNIPRP,-0.126
10,RRIRDRPPRLPRPRPRPQNKPRP,-0.475
11,RRIRDRPPRLPRPRPRPQPGPRP,0.237
12,RRIRDRPPRLPRPRPRPQPLPRP,0.194
13,RRIRDRPPRLPRPRPRPQPVPRP,0.28
14,RRIRDRPPRLPRPRPRPQTLPRP,0.0519
15,RRIRDRPPRLPRPRPRPQTRPRP,0.138
16,RRIRDRPPRLPRPRPRPRDEPRP,0.12
17,RRIRDRPPRLPRPRPRPRDRPRP,0.13
18,RRIRDRPPRLPRPRPRPREFPRP,-0.0261
19,RRIRDRPPRLPRPRPRPRESPRP,0.583
20,RRIRDRPPRLPRPRPRPRFAPRP,0.327
21,RRIRDRPPRLPRPRPRPRHAPRP,0.324
22,RRIRDRPPRLPRPRPRPRIQPRP,-0.0934
23,RRIRDRPPRLPRPRPRPRKEPRP,-0.00977
24,RRIRDRPPRLPRPRPRPRKKPRP,0.0136
25,RRIRDRPPRLPRPRPRPRLAPRP,0.686

row,Sequence,shrunken log2 fold change
1,RRIRDRPPRLPRPRPRPRNDPRP,-0.461
2,RRIRDRPPRLPRPRPRPRNFPRP,0.0881
3,RRIRDRPPRLPRPRPRPRPGPRP,1.6
4,RRIRDRPPRLPRPRPRPRSYPRP,-0.0236
5,RRIRDRPPRLPRPRPRPRTGPRP,0.0132
6,RRIRDRPPRLPRPRPRPRVNPRP,-0.149
7,RRIRDRPPRLPRPRPRPRVYPRP,0.102
8,RRIRDRPPRLPRPRPRPRYCPRP,-0.351
9,RRIRDRPPRLPRPRPRPRYPPRP,-0.0457
10,RRIRDRPPRLPRPRPRPSAWPRP,0.123
11,RRIRDRPPRLPRPRPRPSCMPRP,0.0312
12,RRIRDRPPRLPRPRPRPSCTPRP,-0.244
13,RRIRDRPPRLPRPRPRPSCYPRP,-0.302
14,RRIRDRPPRLPRPRPRPSEIPRP,-0.167
15,RRIRDRPPRLPRPRPRPSELPRP,-0.184
16,RRIRDRPPRLPRPRPRPSEWPRP,-0.0637
17,RRIRDRPPRLPRPRPRPSGKPRP,-0.24
18,RRIRDRPPRLPRPRPRPSGMPRP,-0.0709
19,RRIRDRPPRLPRPRPRPSIHPRP,-0.123
20,RRIRDRPPRLPRPRPRPSIYPRP,-0.313
21,RRIRDRPPRLPRPRPRPSKFPRP,-0.105
22,RRIRDRPPRLPRPRPRPSLTPRP,0.154
23,RRIRDRPPRLPRPRPRPSLYPRP,0.266
24,RRIRDRPPRLPRPRPRPSMDPRP,-0.0183
25,RRIRDRPPRLPRPRPRPSMSPRP,-0.33
